Assay: soluble on expression in E. coli; label from the status in PepcDB or PDB records

Soluble on expression in E. coli, not soluble:
MGSDKIHHHHHHMADQTESVSGVNVDQAELQKFAELAHKWWDKNSEFKPLHEINPLRLNYIDEHAGLAGKRVLDVGCGGGILSESMSERGAEVTGIDLGEKALKVAKLHQYESSAKVDYRLISVEELAQESPESFDIVTCMEMLEHVPDPAAIVRACARLTKPGGKVFFSTINRNPKAYLFAVLGAEYVLNLLPRGTHEYEKFIKPSELAGWARAAGLDVIASKGMGYNPLTKRYKLNNDVSVNYILQTVK
MGSDKIHHHHHHMAEIEQALASPQLIAEKVLKLPSKVLELDRKLADPQFDTKDLLALIEQDPLLSVEVLKLCNSPAFKRGEREVTSLQQALVQLGREQLRRFVTSSLVREMLDIKPIYFRRFGAEIWRHSMQVAFLASELSEEDRDTAFLLGLLHDVGKLAIFKMLLDAFVQAEPGEQPNSWLFRQVMTAKSLTLSALLAKHWQLPSTFETELDKLAHVHTRPNEGIAAVVWRANVISEISMLQQASKLPADMLSNLLALVGLEQAQFDELHEKLQQF
MGSDKIHHHHHHMAEKQYDFTHVPKRQGNSIKWGVLKEKELPMWIAEMDFKIAPEIMASMEEKLKVAAFGYESVPAEYYKAVADWEEIEHRARPKEDWCVFASGVVPAISAMVRQFTSPGDQILVQEPVYNMFYSVIEGNGRRVISSDLIYENSKYSVNWADLEEKLATPSVRMMVFCNPHNPIGYAWSEEEVKRIAELCAKHQVLLISDEIHGDLVLTDEDITPAFTVDWDAKNWVVSLISPSKTFNLAALHAACAIIPNPDLRARAEESFFLAGIGEPNLLAIPAAIAAYEEGHDWLRELKQVLRDNFAYAREFLAKEVPEVKVLDSNASYLAWVDISALGMNAEDFCKYLREKTGLIISAGNGYRGNGHEFVRINLACPKELVIDGMQRLKQGVLNLNN
MGSDKIHHHHHHMAFVGFKKSGKTTTIEKVARVLKEKGYRVAIVKSMHSEFDRPGTDTWKFSRIADSVLVHAKDTDALLFKAKDINALFSMISSDVVLIEGFKSIKHVPKVICARSEDEVRELNDGLAIAVSGVIASQGVKEVDGLPVIDGTREPEKLAELVLKRGFMLPNIDCGLCGFNCEQMAKLIVKGEKSVNDCVVLSSRPKVIIKIDGQPLYLKDWVQELVEKTIKGMLSAMKGYREGKRIEIIING
MGSDKIHHHHHHMAFWQSKTLTEMTSQEWESLCDGCGKCCLNKLIDDETEELYYTNAACLLLDHQTTSCQHYSDRFRYVPQCTVITAQNVHELTWLPDSCAYRRLAAGRALPSWHPLLTGSKDAMHLAGMSIQGKVVDERRVKDIEDHIVLWPLKDLD
MGSDKIHHHHHHMAGANNPVITIKRGLDIPIAGEPLQQIDDAPKTTQVALIGEEYVGLKPTMSVEVGDHVVKGQVLFEDKKTPGVLFTAPASGVVCAINRGERRVLQSVVIDCDATQEPAIILESVDIHALSHQAVKDGLVRSGLWTALRTRPFSRVPQLDAAPAGIFVTAIDTNPLAPDPRVIIATQPQAFQAGLFALTFLTTEKVYLCQDDGASLLADASSEYDLSKVSVQRFNGVHPAGLVGTHIHFLLPASIERQVWHVGYQDVIAFGKLFLTGELYTDRIVALGGPNVLKPRLVRTQLGAKLSEWVNGEIDQRQSRIVSGSLLSGHTAADVYDFLGRFHNQISVLTENERQELLPWVRHDSSKFSLTGIMMSGFSRTKKLFDFTTNAGGSPRAMMAFGQLARVMPLDILPILLVRDLVVRDTDEAQLLGALELDEEDLALCTFVCPGKYDFGKELRACLDIIEREG
MGSDKIHHHHHHMAGMQIQGMQIESIDIQNYRLFKQASLNKLSRLAVFVGENGAGKSTIFDVFSFLKDSLAQNAAKAVARRGGFKELVSRGTEGPISITLKFRETGGRLATYELSVAFEGGRVVVDREVLKFRRGQRGQPWHFVDFSRGRGTAVTNEAMYGKPGVKVERKEYILDEPTVLAIKGLGQFKEFRVVSEFRNLIENWHITDFHIADARPSAEEGYAEHLSTRGDNVAQVAQFLYDHHPDRFNNILDAMKRRIPGVEKVEAKPTEDGRLVLRFQDGAFKDPFIARYVSDGTIKMFAYLVLLHDPNPFPLLAVEEPENQLYPELLQELAEEFRDYARRGGQVFISTHSPEFMNGLYLDEIYWLSKKDGYSTIYRGADSEVLKRLVAEGDHPGALWRQGVFKGAW
MGSDKIHHHHHHMAHLPQMKIPATYMRGGTSKGVFFSLTDLPAAAQVAGAARDAILLRVIGSPDPYGKHTDGMGGATSSTSKTVILSKSTQADHDVDYLFGQVSIDKPFVDWSGNCGNLTAAVGSFAISNGLIDPSRVPENGTAIVRIWQANIHKTIIAHVPITNGEVQETGDFELDGVTFPAAEVQVEFLDPADGDGAMFPTGNVVDELNVPGVGTFKATMINAGIPTIFINAADIQYQGTELQDDINNDDKALAMFETIRAYGAVKMGLIKHIDEAVARQHTPKVAFVAPAANYISSSGKAVNTDDIDLVVRALSMGKLHHAMMGTAAVAIGTAAAIPGTLVNLAAGGGELSAVRFGHPSGTLRVGAQAALVQGQWQVKKAIMSRSARVLMEGKVSIPQ
MGSDKIHHHHHHMAHPFLRTIFEVVITLYMLHNLYKVLGDDEMDLEEMSSFFNKRVNEYEEHMMNNVGGANQYYIETAKLIPRGKEINILDLGCGTGLELDEIFKINNTVRVTGIDLAENMLRKIKEKHKDKLDRLTLIVGDYFSCDIGEKVFDAALSVETLHHFNHEQKIKLYKKIVRSLKDNGVYIEADYMAPNQDYEDHCFNENKRIRLELGIKDGFYHYDTPCTVENQIKMLYKSGFKSVEKVFKAENTVILLAKK
MGSDKIHHHHHHMAKGLFDRYIWLIDTIYRAGKITFEEINKRWLRTEMSNGEEIPLRTFHNHRKAIETMFDINIECNKRAGYYYYIENADDIDKDKIKKWLLNTFAINNLANESHRLKQRILFEDIPSGKQYLSSIIEAMLENRIIEITYQSYWKEEANTFTIEPFCVKVFKQRWYIIARSPYYDTIMIYALDRIQNLQVTDITFNYPSDFDPQSYFEFSFGIVVDEICNIDKIRIKVYGKKCQYIKALPLHHSQSEVETTKSYSIFEYLLKPTYDFCQELLSHGDEIEVLSPTSLKEQIKEIVKNMSRYYN
MGSDKIHHHHHHMAKIGIVICNYNKQNDVIDCIQSVLESKYEDYHIYVVDNASTDESVRLIRECYGSCDRLTLIENSENLGGSGGFNTGLRVAMAEGHMYLMCVDNDALLDENCIGTLSDFLDSHEKAGIAAAKIYHTGQENYVQQYGSFIDYDNYSVDSTYLNHIEDGSMPDVVYSDAVPACALMIRRTVVEQIGVMPEENFLYWDDTEWCVRCREAGYEVASVGAAAASHAMGAKKEDINTFPTYYAWRNWIKFFLDHIDEERLSDMAETFLGSIFEINYTDLYRGEENRSKTVMAALDDALHKVMGKAKEDRIFNLELTYDGLERAIGDKSDIAIMAGEFPLYADALKEKIKVMWPDKRVYIVGLQDIDEAYGTAHFQPDATITICESIFRQDDLSLSTYVMDLDGNVLVDEDDVLMVINYNFSRRSFIFSMKPLFMRLSRQNYGF
MGSDKIHHHHHHMAKVAHKKLLLSELQPGMRVKLPLSWTNHPFLFNRVDINSAAQIEMIRGLGVPFVYLISGSSDDAEAVDEEEEIEEIDEMPPERDLKADTRKSMRLSQKRFLESVNQCRNVFGKIVSDPEGAYRLSAALVEDLLSHLQEVQKPFLTLVGMDEKDVSVTQHGVSVAVLAMMIGHALDLPARELRDIALGSLFHDIGKLKVPDVIRRKRSALTPHEANYLQMHPNFGYDMLNRSGLFPKEVLNIVLHHHEFVDGSGFPDGLTGHKIPMVTQIVSLANDYDQQLSGQQATSPQVALGYLFKNRASKHSESLISVLVKILGIYPPGTIVKLSDDNVAKVIMTTKEVSQPQVWACKEDGSEASLRFLSDEGVTVQKSLRVEDLTEGAKRTLQVDKGISFYFSSLQA
MGSDKIHHHHHHMALEVVLWDFDGVIFDSMHLKNEGFRALFQKHGNKNQESLKQFEVYHYQSGGISRNEKIQYFYNEILKTPIAQEEVDALALEFGTIIEQKLFDREHLNSEVMAFIDKHYKNHVFHIASAALHSELQVLCEFLGIIKYFKSVEGSPPNKPKIIANIIQKYAYNPGRMLMIGDSVNDYESAQANEVAFLGYNSKVLKNLVGQNGYQGKYLESFKGFDLQNFIKE
MGSDKIHHHHHHMALKKICLENFTVFDKMEIEFCDGVNVLIGENGTGKTHIMKLLYAACQSAHASKKVISFPQKIVQVFKPDHANISRLLSRKAGNGSAKVHVISGNNTLKTSFNLKTKNWDAEVVGAQAWEKQLSNLTSTFIPAKEILSNSKNLVNAINVGNVDFDDTYKDIISVASVDINRGPNNVQKEKYLQILQDITDGKVSYENEEFYLLPGNQAKLEFQLVAEGMRKIALLWQLIKNGTLEQGTVLFWDEPEANINPKHIPALVEVLLNLQGDGVQIFIATHDYVLAKYLEIRMADANKIRFHSLYKKEGRVEVESNHNFKDLVNNSIAEAYNKLLDEVFEQTTKG
MGSDKIHHHHHHMALRKNRGSRMQRNVIAMTEPKSLNSEQYRTIRTNIEFASVDRQMKSVMITSACPGEGKSTTAANLAVVFAQQGKKVLLIDADLRKPTVHTAFFLENTVGLTSVLLKKSSMEQAVQASNEKHLDVLTSGPIPPNPAELLSSKWMKELAYEACAAYDMVIFDTPPILAVADAQILGNVADGSVLVISSGKTEKEQAAKAKEALATCKSKLLGAIMNGKKLSKHSEYGYYGTKDNFMQK
MGSDKIHHHHHHMALTQLEQPLSPQPTPPDLRGYEYDLVIVGGGIIGLTLASALKDSGLSILLIEAKVASAAVAKGQAYAVHQLSALIYQGIGVWDKILPQIAKYRRVRLSDADYPNVVEFTTDDIHTAELGYVAEHQALLQPLQEFVQDCPNVTYLCPAEVVNTQYQKDIVAVDIKVADQLYTVRSKLLIAADGARSPIRQAAGIKTSGWKYWQSCIVAFVKPEKPHNNTAYERFWSSGPFAILPLPENRCRIVWTAPHEEAKALCALDDEQFLAELTRRYGDQMGKLELLGDRFVFQVQLMQSDRYVLPRLALIGDAAHNCHPVGGQGLNLGIRDAAALAQVIQTAHQAGKDIGDIQILKGYERWRKLENLTILGFTDLLDRMFSNNFLPVVVVRRLGLWFLQRVPLLKVFMLKLMIGLKGRTPELAKR
MGSDKIHHHHHHMALYKTESGEIHLVRDICPHRGVPLTKGWVDGEEIVCPYHGLRYNTEGKCTQIPAQPELTKISDRFSLTKFPVVQRYGLIWTSIHGRDVTQANIPVLDTWDDAEHQAILPPFVDIGGSSGRQLEGFIDVAHFAWVHHNAFANRDNPIVPKYHTERTNYGLKTVYISNVSNYPHELKHLEPEGFLWKRTFEVYPPFSAVLTVDFPEGGILKILNACCPISSNKTRLFVPLTRNFDQTGDLEKVYAFNAQIFAEDQDMVESQKPEELPLDLMMEAHFEADRSSTTYRRILAEWGLSKRYTV
MGSDKIHHHHHHMANDWLELRQHADTGIETIKAHFEGHAYDPHWHDSYLVGLTLSGTQQFHCRRERHRSRPGDAFLLEPGEIHDGDAPVDGGFTYLTFYLDEQWLTNALHGLYESTPGSYSLHFAQTLTREPQLVRSISDSFTTLHNDEMKIVQQSSMDKLLSQITAHCHWRKRLPSQLQSTAVAHRARDYLYAHMGENIGLSDLARETGTDRFTLTRCFKREFHLAPHAWFIQLRLAKARQLLAYGDQPADVAAALGFSDQSHLGRWFQRAYRISPAHYRRLCTNLPDVSRR

— the DeepSol protein solubility set
